Source: US10502741B2, “Means and methods for detecting activated MALT1” (Helmholtz Zentrum München Deutsches Forschungszentrum für …, priority 2014, dated 2019)
The star is where a group is joined. BODIPY(FL) = CC1=CC(C)=[N+]2C1=Cc1ccc(CCC(=O)*)n1[B-]2(F)F; AOMK = acyloxymethyl ketone C-terminal warhead; alkyne = not defined here

Legend:
active MALT1 [1] = target: T1, active MALT1 (Homo sapiens, UniProt Q9UDY8); experiment: Labeling with diagnostic inhibitor in cell extracts (gel-based, fluorescence scan): active MALT1 band
T1 construct: endogenous in cells; host or cells: Jurkat T cells, primary human PBMCs and T cells, DLBCL cell lines (HBL1, TMD8, OCI-Ly3, OCI-Ly10, U2932, RIVA, BJAB, Su-DHL-4, Su-DHL-6)
T1 sequence (Q9UDY8 1-824): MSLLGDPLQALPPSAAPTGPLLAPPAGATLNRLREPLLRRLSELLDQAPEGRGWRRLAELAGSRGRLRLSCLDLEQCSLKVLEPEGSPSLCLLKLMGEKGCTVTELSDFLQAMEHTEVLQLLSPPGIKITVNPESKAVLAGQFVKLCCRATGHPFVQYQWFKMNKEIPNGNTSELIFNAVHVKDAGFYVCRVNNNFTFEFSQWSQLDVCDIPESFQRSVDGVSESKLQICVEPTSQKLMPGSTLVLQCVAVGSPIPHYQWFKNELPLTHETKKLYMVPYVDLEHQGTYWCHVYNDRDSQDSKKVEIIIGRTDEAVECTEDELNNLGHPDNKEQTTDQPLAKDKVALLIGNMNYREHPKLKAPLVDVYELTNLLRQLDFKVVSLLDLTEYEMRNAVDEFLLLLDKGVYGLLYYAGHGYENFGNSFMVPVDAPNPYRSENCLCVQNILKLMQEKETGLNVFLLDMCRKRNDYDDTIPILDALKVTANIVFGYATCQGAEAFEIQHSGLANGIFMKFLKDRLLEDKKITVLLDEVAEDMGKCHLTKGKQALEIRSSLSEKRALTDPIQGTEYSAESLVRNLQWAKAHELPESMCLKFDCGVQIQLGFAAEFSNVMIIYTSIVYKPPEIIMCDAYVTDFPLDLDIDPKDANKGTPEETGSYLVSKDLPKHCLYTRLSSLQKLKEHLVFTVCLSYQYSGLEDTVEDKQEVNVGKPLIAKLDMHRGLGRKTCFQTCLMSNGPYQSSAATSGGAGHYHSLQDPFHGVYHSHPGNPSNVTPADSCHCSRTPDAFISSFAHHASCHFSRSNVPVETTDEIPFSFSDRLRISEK
Procedure: (§1) Jurkat T cells were cultured in standard RPMI medium containing 10% FCS, 100 U/ml Penicillin/Streptomycin and 2 mM Glutamin. DNA transfection of 6 μg DNA in 8×10^6 Jurkat T cells was performed by electroporation in a GenePulser Xcell (BioRad) with a 220 Volt pulse. For siRNA experiments, Jurkat T cells were transfected with 100 nM siRNA and Atufect transfection reagent (Silence Therapeutics, Berlin). Jurkat T cells were stimulated either with 200 ng/ml PMA (phorbol 12-myristate 13-acetate) and 300 ng/ml Ionomycin (both Calbiochem) or CD3/CD28 antibody co-ligation (human CD3: 1 μg/ml; human CD28: 4 μg/ml; mouse IgG1: 2 μg/ml; mouse IgG2a: 2 μg/ml; BD Biosciences). DLBCL cell lines (HBL1, TMD8, OCI-Ly3, U2932, RIVA, BJAB, Su-DHL-4 and Su-DHL-6) were cultured in standard RPMI medium containing 20% FCS, 100 U/ml Penicillin/Streptomycin and 2 mM Glutamin. OCI-Ly10 cell line was cultured in IMDM containing 20% human serum, 100 U/ml Penicillin/Streptomycin, 2 U/ml heparine, 50 μM β-mercaptoethanol. Inhibitors 10 μM (z-VRPR-FMK, Mepazine, Thioridazine, CA-074Me) were added to the cells in media for 1 h, prior to stimulation and labeling with diagnostic MALT1 inhibitor.
(§2) Jurkat T cells (1-2×10^7), primary human PBMCs or primary human T cells (0.25 or 1×10^7) were lysed in 150 μl co-IP buffer without protease inhibitors. DLBCL (3×10^7) were lysed in 250 μl buffer. After centrifugation (14000 rpm, 10 min, 4° C.), 100 μl extract (DLBCL: 200 μl) was stained with probe 5 or probe 6 (3 μM end) for 50 min at 29° C., mixed with 4× loading dye and boiled.

cathepsin B = cathepsin B (Homo sapiens, UniProt P07858); experiment: Labeling with diagnostic inhibitor in cell extracts (gel-based, fluorescence scan): about 30 kDa cathepsin B band; set-up: endogenous in cells; host or cells: Jurkat T cells; HBL1 and other DLBCL cell lines; settings: Jurkat T cells, whole cell extract
Procedure: as §1, §2

active MALT1 [2] = target: T1, active MALT1; experiment: Labeling with diagnostic inhibitor in cell extracts (gel-based, fluorescence scan): active MALT1 band; settings: 2×10^6 primary human T cells, 3 μM probe
FLAG-MALT1 wt = target: T2, FLAG-MALT1 wt (Homo sapiens, UniProt Q9UDY8); experiment: Labeling with diagnostic MALT1 inhibitor after immunoprecipitation (gel-based, fluorescence scan); type: binding; settings: probe pre-clicked to TAMRA, after FLAG immunoprecipitation in Jurkat T cells
T2 construct: expressed in transfected cells; host or cells: Jurkat T cells (pEF vector, electroporation)
T2 sequence (Q9UDY8 1-813 isoform Q9UDY8-2): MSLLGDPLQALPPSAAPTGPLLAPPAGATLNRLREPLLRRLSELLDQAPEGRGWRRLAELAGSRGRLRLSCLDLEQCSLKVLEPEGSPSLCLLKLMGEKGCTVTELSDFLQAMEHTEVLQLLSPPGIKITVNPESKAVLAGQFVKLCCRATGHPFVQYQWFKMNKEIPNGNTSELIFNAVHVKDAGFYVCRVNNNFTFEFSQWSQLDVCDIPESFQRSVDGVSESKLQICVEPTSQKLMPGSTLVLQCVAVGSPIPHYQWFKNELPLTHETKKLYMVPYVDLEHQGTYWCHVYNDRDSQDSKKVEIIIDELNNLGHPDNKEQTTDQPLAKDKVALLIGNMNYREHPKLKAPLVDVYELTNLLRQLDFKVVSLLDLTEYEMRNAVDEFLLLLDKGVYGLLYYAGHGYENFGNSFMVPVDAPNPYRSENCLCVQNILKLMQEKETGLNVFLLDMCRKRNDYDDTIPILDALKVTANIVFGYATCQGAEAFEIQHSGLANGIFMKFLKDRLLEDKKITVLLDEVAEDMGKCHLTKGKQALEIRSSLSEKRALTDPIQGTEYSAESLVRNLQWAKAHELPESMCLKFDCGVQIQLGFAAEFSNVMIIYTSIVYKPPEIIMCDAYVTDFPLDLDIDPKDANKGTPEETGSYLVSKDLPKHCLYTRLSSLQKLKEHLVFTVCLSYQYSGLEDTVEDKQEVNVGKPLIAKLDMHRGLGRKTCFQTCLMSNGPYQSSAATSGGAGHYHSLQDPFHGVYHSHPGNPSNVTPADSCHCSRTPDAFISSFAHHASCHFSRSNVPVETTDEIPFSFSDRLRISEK
Procedure: Jurkat T cells, transfected with active FLAG-[…] wt or active site mutant C464A, were stained after lysis and IP with probe 2, pre-clicked to TAMRA. Analysis was done by fluorescence staining.
Copper I-catalysed click chemistry reaction was performed in 50 μl 50 mM hepes with 10 μM alkyne-LRSR-AOMK (probe 2) and 10 μM N-TAMRA-3-aminopropylazide or 100 μM N-FITC-3-aminopropylazide. Reducing agent sodium ascorbate (0.5 mM), TBTA (50 μM) and CuSO4 (1 mM) were added to the reaction and incubated for 45 min at RT.
Cells were lysed in 500 μl co-IP buffer without protease inhibitors (25 mM hepes pH 7.5, 150 mM NaCl, 0.2% NP-40, 10% glycerol, 1 mM DTT, 10 mM sodium fluoride, 8 mM (3-glycerophosphate and 300 μM sodium vanadate), centrifuged (14000 rpm, 10 min, 4° C.) and overexpressed FLAG MALT1 was immunoprecipitated by FLAG (M2) antibody for 3 hours at 4° C. PGS was added for 1 h at 4° C., precipitate was washed 2× with co-IP buffer and 1× with 50 mM hepes pH 7.4. Precipitated MALT1 was incubated with 0.3 μM pre-clicked probe 2 (in 20 μl 50 mM hepes pH 7.4) for 50 min at 29° C., mixed with 4× loading dye and boiled for 3 min. After protein separation by SDS PAGE, staining with diagnostic inhibitor was detected by Typhoon Fluorescence Scanner (FITC laser 488 nm/filter 526 SP; TAMRA laser 532 nm/filter 580 BP).

active MALT1 signal in lymphoma whole cell extracts (active MALT1 [1]; ABC DLBCL cells (HBL1 for probe 6))	MALT1-probe labeling in GCB DLBCL cells (active MALT1 [1]; panel of GCB DLBCL pretreated with CA-074Me, whole cell lysates)	cathepsin B labeling compared with probe 5 (cathepsin B)	active MALT1 signal in primary human T cells, gel-based (active MALT1 [2])	Substance	active MALT1 labeling compared with probe 5 (active MALT1 [1]; Jurkat T cells, whole cell extract)	MALT1-probe complex in ABC DLBCL cells (active MALT1 [1]; panel of ABC DLBCL pretreated with CA-074Me, whole cell lysates, no stimulation)	labeling of overexpressed FLAG-MALT1 wt versus catalytic inactive mutant (FLAG-MALT1 wt)
weakly labeled active MALT1	all negative	cathepsin B labeling was even reduced	weak active MALT1 signal	(BODIPY-FL)-LRSR-AOMK ({BODIPY(FL)}-LRSR-{AOMK}) [probe 6]	slightly more effective in active MALT1 labeling	detected even in the absence of any stimulation	
				alkyne-LRSR-AOMK (alkyne-LRSR-{AOMK}; not fully specified; reading uncertain) [probe 2, used pre-clicked to TAMRA]			FLAG-MALT1 wt but not the catalytic inactive mutant was detected
